Source: US20260209345A1 (IOMX THERAPEUTICS, published 2026)

B1: A-005 (antibody, V domains shown)
VH: QVQLVQSGAEVKKPGSSVKVSCKASGGTFTIYAINWVRQAPGQGLEWMGGIIPGFHSANYAQKFQGRVTITADESTSTAYMELSSLRSEDTAVYYCAKDLGTYSSGWPYYYGMDVWGQGTTVTVSS
VL: SYELTQPPSVSVSPGQTASITCSGDKLGDKYASWYQQKPGQSPVLVIYQDSKRPSGIPERFSGSNSGNTATLTISGTQAEDEADYYCQSTTHTSFVFGGGTKLTVL
notes: tested as IgG
B2: A-006 (antibody, V domains shown)
VH: QVQLVQSGAEVKKPGSSVKVSCKASGGTFSQYAFSWVRQAPGQGLEWMGSIIPGFTTSNYAHKFQGRVTITADESTSTAYMELSSLRSEDTAVYYCAKDLGTYSSGWPYYYGMDVWGQGTTVTVSS
VL: SYELTQPPSVSVSPGQTASITCSGDKLGDKYASWYQQKPGQSPVLVIYQDSKRPSGIPERFSGSNSGNTATLTISGTQAEDEADYYCQSTTHTSFVFGGGTKLTVL
notes: tested as IgG
B3: A-007 (antibody, V domains shown)
VH: QVQLVQSGAEVKKPGSSVKVSCKASGGSFREYAFSWVRQAPGQGLEWMGSIIPTFHTSNYAGKFQGRVTITADESTSTAYMELSSLRSEDTAVYYCAKDLGTYSSGWPYYYGMDVWGQGTTVTVSS
VL: SYELTQPPSVSVSPGQTASITCSGDKLGDKYASWYQQKPGQSPVLVIYQDSKRPSGIPERFSGSNSGNTATLTISGTQAEDEADYYCQSTTHTSFVFGGGTKLTVL
notes: tested as IgG
B4: A-008 (antibody, V domains shown)
VH: QVQLVQSGAEVKKPGSSVKVSCKASGGTFAESAILWVRQAPGQGLEWMGGIVPSFYSANYAQKFQGRVTITADESTSTAYMELSSLRSEDTAVYYCAKDLGTYSSGWPYYYGMDVWGQGTTVTVSS
VL: SYELTQPPSVSVSPGQTASITCSGDKLGDKYASWYQQKPGQSPVLVIYQDSKRPSGIPERFSGSNSGNTATLTISGTQAEDEADYYCQSTTHTSFVFGGGTKLTVL
notes: tested as IgG
B5: A-009 (antibody, V domains shown)
VH: QVQLVQSGAEVKKPGSSVKVSCKASGGTFSVTAILWVRQAPGQGLEWMGGIIPSFTSANYASKFQGRVTITADESTSTAYMELSSLRSEDTAVYYCAKDLGTYSSGWPYYYGMDVWGQGTTVTVSS
VL: SYELTQPPSVSVSPGQTASITCSGDKLGDKYASWYQQKPGQSPVLVIYQDSKRPSGIPERFSGSNSGNTATLTISGTQAEDEADYYCQSTTHTSFVFGGGTKLTVL
notes: tested as IgG
B6: A-010 (antibody, V domains shown)
VH: QVQLVQSGAEVKKPGSSVKVSCKASGGTFQSQAFAWVRQAPGQGLEWMGSIIPGFSTANYAQKFQGRVTITADESTSTAYMELSSLRSEDTAVYYCAKDLGTYSSGWPYYYGMDVWGQGTTVTVSS
VL: SYELTQPPSVSVSPGQTASITCSGDKLGDKYASWYQQKPGQSPVLVIYQDSKRPSGIPERFSGSNSGNTATLTISGTQAEDEADYYCQSTTHTSFVFGGGTKLTVL
B7: A-011 (antibody, V domains shown)
VH: QVQLVQSGAEVKKPGSSVKVSCKASGGSFSHSAFSWVRQAPGQGLEWMGSIIPAFYTANYAQKFQGRVTITADESTSTAYMELSSLRSEDTAVYYCAKDLGTYSSGWPYYYGMDVWGQGTTVTVSS
VL: SYELTQPPSVSVSPGQTASITCSGDKLGDKYASWYQQKPGQSPVLVIYQDSKRPSGIPERFSGSNSGNTATLTISGTQAEDEADYYCQSTTHTSFVFGGGTKLTVL
notes: tested as IgG
B8: A-012 (antibody, V domains shown)
VH: QVQLVQSGAEVKKPGSSVKVSCKASGGTISEYAFLWVRQAPGQGLEWMGGIIPKFHTANYAQKFQGRVTITADESTSTAYMELSSLRSEDTAVYYCAKDLGTYSSGWPYYYGMDVWGQGTTVTVSS
VL: SYELTQPPSVSVSPGQTASITCSGDKLGDKYASWYQQKPGQSPVLVIYQDSKRPSGIPERFSGSNSGNTATLTISGTQAEDEADYYCQSTTHTSFVFGGGTKLTVL
notes: tested as IgG
B9: A-013 (antibody, V domains shown)
VH: QVQLVQSGAEVKKPGSSVKVSCKASGGTFRQEAFSWVRQAPGQGLEWMGSIIPIFYSSNYAQKFQGRVTITADESTSTAYMELSSLRSEDTAVYYCAKDLGTYSSGWPYYYGMDVWGQGTTVTVSS
VL: SYELTQPPSVSVSPGQTASITCSGDKLGDKYASWYQQKPGQSPVLVIYQDSKRPSGIPERFSGSNSGNTATLTISGTQAEDEADYYCQSTTHTSFVFGGGTKLTVL
notes: tested as IgG
B10: A-014 (antibody, V domains shown)
VH: QVQLVQSGAEVKKPGSSVKVSCKASGGTFSSYAINWVRQAPGQGLEWMGGIIPIFHTSNYAQKFQGRVTITADESTSTAYMELSSLRSEDTAVYYCAKDLGTYSSGWPYYYGMDVWGQGTTVTVSS
VL: SYELTQPPSVSVSPGQTASITCSGDKLGDKYASWYQQKPGQSPVLVIYQDSKRPSGIPERFSGSNSGNTATLTISGTQAEDEADYYCQSTTHTSFVFGGGTKLTVL
notes: tested as IgG
B11: A-015 (antibody, V domains shown)
VH: QVQLVQSGAEVKKPGSSVKVSCKASGGSFQSYAINWVRQAPGQGLEWMGGIIPGFSTANYAQKFQGRVTITADESTSTAYMELSSLRSEDTAVYYCAKDLGTYSSGWPYYYGMDVWGQGTTVTVSS
VL: SYELTQPPSVSVSPGQTASITCSGDKLGDKYASWYQQKPGQSPVLVIYQDSKRPSGIPERFSGSNSGNTATLTISGTQAEDEADYYCQSTTHTSFVFGGGTKLTVL
notes: tested as IgG
B12: A-016 (antibody, V domains shown)
VH: QVQLVQSGAEVKKPGSSVKVSCKASGGTFSSYAFNWVRQAPGQGLEWMGSIIPIFKTANYAQKFQGRVTITADESTSTAYMELSSLRSEDTAVYYCAKDLGTYSSGWPYYYGMDVWGQGTTVTVSS
VL: SYELTQPPSVSVSPGQTASITCSGDKLGDKYASWYQQKPGQSPVLVIYQDSKRPSGIPERFSGSNSGNTATLTISGTQAEDEADYYCQSTTHTSFVFGGGTKLTVL
notes: tested as IgG
B13: A-017 (antibody, V domains shown)
VH: QVQLVQSGAEVKKPGSSVKVSCKASGGTFSSYAISWVRQAPGQGLEWMGGIIPYFSLANYAPKFQGRVTITADESTSTAYMELSSLRSEDTAVYYCAKDLGTYSSGWPYYYGMDVWGQGTTVTVSS
VL: SYELTQPPSVSVSPGQTASITCSGDKLGDKYASWYQQKPGQSPVLVIYQDSKRPSGIPERFSGSNSGNTATLTISGTQAEDEADYYCQSTTHTSFVFGGGTKLTVL
notes: tested as IgG
B14: A-018 (antibody, V domains shown)
VH: QVQLVQSGAEVKKPGSSVKVSCKASGGTFSTSAISWVRQAPGQGLEWMGGIIPIFYTANYAQKFQGRVTITADESTSTAYMELSSLRSEDTAVYYCAKDLGTYSSGWPYYYGMDVWGQGTTVTVSS
VL: SYELTQPPSVSVSPGQTASITCSGDKLGDKYASWYQQKPGQSPVLVIYQDSKRPSGIPERFSGSNSGNTATLTISGTQAEDEADYYCQSTTHTSFVFGGGTKLTVL
notes: tested as IgG

What was measured:
recombinant LILRB2 ECD [1] = target: T1, recombinant LILRB2 ECD (human, UniProt Q8N423 22-460); experiment: ELISA, LILRB2 ECD binding to HLA-G-Fc
T1 construct: also called biotinylated LILRB2 ECD
Protocol: (§1) HLA-G inhibition was tested by ELISA. 384-well Maxisorp plates were coated with 2 ug/mL B2M-HLA-G fused to a mouse IgG2a-Fc and the plates were blocked with 2% (w/v) BSA in PBST. […] 15 ul of the antibody dilution series (300 nM to 0.3 nM) were mixed with 30 μL of the pre-mixed LILRB/Avidin-HRP solution (final antibody concentration 100 nM to 0.1 nM) and incubated for 1 h at room temperature. After three wash cycles with PBST, 20 μL of the antibody/LILRB/Avidin-HRP solution was transferred to the plate with immobilized HLA-G and incubated for 15 min at room temperature. After three wash cycles with PBST, residual LILRB binding to HLA-G was detected by developing the ELISA with TMB substrate.

recombinant LILRB1 ECD [2] = target: T2, recombinant LILRB1 ECD (human, UniProt Q8NHL6 24-461); experiment: ELISA, LILRB1 ECD binding to HLA-G-Fc
T2 construct: also called biotinylated LILRB1 ECD
Protocol: as §1

recombinant LILRA3 = target: T3, recombinant LILRA3 (human, UniProt Q8N6C8 24-439); experiment: BLI, IgG on AHC sensor, ECD in solution
T3 construct: whole entry named; also called LILRA3 ECD; LILA3
Protocol: (§2) Briefly, IgGs were captured on anti-human capture (AHC) biosensors (Sartorius). […] Subsequently, the sensors were dipped into 1× Kinetics Buffer to measure the dissociation over 420 s. All sensorgrams were double referenced against 1× Kinetics Buffer and unloaded […] sensors to subtract sensor drifts and potential reference binding of the analytes. The affinities were determined by applying a 1:1 binding model.

recombinant LILRA1 ECD = target: T4, recombinant LILRA1 ECD (human, UniProt O75019 17-461); experiment: BLI, IgG on AHC sensor, ECD in solution
T4 construct: whole canonical entry named; also called LILA1
Protocol: as §2

recombinant LILRB2 ECD [3] = target: T1, recombinant LILRB2 ECD; experiment: BLI, IgG on AHC sensor, ECD in solution
Protocol: as §2

recombinant LILRB1 ECD [4] = target: T2, recombinant LILRB1 ECD; experiment: BLI, IgG on AHC sensor, ECD in solution
Protocol: as §2

T1 sequence (Q8N423 22-460 limits assumed): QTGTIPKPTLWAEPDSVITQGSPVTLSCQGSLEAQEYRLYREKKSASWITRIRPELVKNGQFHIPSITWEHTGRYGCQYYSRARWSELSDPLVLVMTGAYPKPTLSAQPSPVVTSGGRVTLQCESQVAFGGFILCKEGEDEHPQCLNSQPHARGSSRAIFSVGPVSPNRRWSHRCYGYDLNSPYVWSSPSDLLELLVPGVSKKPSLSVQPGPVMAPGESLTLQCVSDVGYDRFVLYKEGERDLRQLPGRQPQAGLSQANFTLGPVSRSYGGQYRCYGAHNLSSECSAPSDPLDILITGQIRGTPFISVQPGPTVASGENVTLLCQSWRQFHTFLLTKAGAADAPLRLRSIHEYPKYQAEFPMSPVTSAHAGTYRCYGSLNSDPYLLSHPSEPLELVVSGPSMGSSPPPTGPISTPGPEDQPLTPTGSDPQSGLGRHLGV
T2 sequence (Q8NHL6 24-461 limits assumed): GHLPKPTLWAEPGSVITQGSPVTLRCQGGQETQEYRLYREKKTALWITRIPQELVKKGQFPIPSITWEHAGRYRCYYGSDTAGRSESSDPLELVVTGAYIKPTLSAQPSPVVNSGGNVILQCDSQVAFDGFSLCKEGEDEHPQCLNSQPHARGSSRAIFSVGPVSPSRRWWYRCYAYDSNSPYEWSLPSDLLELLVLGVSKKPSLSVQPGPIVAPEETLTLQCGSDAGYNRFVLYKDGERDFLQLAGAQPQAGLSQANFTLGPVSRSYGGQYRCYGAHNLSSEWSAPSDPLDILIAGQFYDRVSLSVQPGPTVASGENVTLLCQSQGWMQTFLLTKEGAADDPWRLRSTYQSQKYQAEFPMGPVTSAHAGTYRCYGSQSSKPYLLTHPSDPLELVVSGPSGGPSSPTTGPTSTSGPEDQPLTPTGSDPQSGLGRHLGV
T3 sequence (Q8N6C8 24-439 limits assumed): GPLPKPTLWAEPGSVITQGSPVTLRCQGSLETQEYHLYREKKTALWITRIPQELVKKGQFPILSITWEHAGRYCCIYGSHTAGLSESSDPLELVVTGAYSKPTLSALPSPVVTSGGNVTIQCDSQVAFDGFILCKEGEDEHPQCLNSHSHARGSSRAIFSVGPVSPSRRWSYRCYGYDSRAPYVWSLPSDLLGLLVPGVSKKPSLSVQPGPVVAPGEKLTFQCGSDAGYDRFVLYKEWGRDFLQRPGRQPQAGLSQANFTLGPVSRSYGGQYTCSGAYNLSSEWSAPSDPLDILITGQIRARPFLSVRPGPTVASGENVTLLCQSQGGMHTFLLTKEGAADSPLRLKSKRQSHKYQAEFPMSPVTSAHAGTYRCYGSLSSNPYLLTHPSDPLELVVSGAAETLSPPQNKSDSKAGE
T4 sequence (O75019 17-461 limits assumed): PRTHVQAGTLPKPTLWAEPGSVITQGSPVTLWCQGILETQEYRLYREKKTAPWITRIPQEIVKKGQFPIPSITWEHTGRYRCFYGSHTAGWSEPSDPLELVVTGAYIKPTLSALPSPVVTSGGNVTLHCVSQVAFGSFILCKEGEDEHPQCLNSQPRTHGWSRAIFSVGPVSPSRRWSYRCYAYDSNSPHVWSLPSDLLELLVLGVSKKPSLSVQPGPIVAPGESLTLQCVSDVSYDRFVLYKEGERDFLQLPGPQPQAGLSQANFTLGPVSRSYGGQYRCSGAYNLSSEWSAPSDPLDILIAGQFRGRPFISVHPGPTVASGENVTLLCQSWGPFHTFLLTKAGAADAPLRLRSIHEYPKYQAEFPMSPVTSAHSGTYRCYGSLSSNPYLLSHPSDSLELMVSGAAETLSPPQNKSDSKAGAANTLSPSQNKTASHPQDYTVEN

Row | Binder | IC50 (recombinant LILRB2 ECD [1]) | IC50 (recombinant LILRB1 ECD [2]) | Kd (recombinant LILRA3) | Kd (recombinant LILRA1 ECD) | Kd (recombinant LILRB2 ECD [3]) | Kd (recombinant LILRB1 ECD [4])
1 | B1 | 4.3 nM | 5 nM | 161 nM | 407 nM | 3.3 nM | 1 nM
2 | B2 | 4.8 nM | 6.1 nM | 182 nM | 190 nM | 2.3 nM | 0.5 nM
3 | B3 | 3.6 nM | 3.3 nM | 255 nM | 322 nM | 1.2 nM | 11.7 nM
4 | B4 | 4 nM | 4.1 nM | 355 nM | 1520 nM | 8.8 nM | 7.4 nM
5 | B5 | 5.5 nM | 5.5 nM | 92.8 nM | 194 nM | 3.4 nM | 3.7 nM
6 | B6 | 3.7 nM | 4.1 nM | 217 nM | 760 nM | 3.3 nM | 4.5 nM
7 | B7 | 5.5 nM | 6.1 nM | 137 nM | 470 nM | 4.4 nM | 9.3 nM
8 | B8 | 3.8 nM | 3.3 nM | 166 nM | 469 nM | 6.8 nM | 12.8 nM
9 | B9 | 4.6 nM | 4.5 nM | 622 nM | 1080 nM | 4.2 nM | 6.3 nM
10 | B10 | 4.2 nM | 3.8 nM | 58.8 nM | 471 nM | 2.3 nM | 4.4 nM
11 | B11 | 3.2 nM | 4.4 nM | 202 nM | 868 nM | 3.5 nM | 5 nM
12 | B12 | 5.1 nM | 4.4 nM | 116 nM | 402 nM | 1.4 nM | 6.5 nM
13 | B13 | 4.4 nM | 4.5 nM | 223 nM | 591 nM | 1.7 nM | 2.3 nM
14 | B14 | 5.1 nM | 5 nM | 212 nM | 808 nM | 2.7 nM | 6.2 nM
